Measurements: patent US20190248902A1 (published 2019)

T1: soluble human ASGR-1 carbohydrate binding domain (CBD; amino acid residues 154-281; N-terminal 6xHis tag) (human, UniProt P07306 154-281)
T1 construct: also called ASGR-1 CBD
T1 sequence: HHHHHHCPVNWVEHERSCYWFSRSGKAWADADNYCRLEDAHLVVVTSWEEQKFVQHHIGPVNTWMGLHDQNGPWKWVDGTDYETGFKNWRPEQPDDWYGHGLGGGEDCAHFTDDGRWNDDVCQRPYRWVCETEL

T2: human ASGR-1 (wild type) (human, UniProt P07306 1-291)
T2 construct: also called wt ASGR1; huASGR-1
T2 sequence: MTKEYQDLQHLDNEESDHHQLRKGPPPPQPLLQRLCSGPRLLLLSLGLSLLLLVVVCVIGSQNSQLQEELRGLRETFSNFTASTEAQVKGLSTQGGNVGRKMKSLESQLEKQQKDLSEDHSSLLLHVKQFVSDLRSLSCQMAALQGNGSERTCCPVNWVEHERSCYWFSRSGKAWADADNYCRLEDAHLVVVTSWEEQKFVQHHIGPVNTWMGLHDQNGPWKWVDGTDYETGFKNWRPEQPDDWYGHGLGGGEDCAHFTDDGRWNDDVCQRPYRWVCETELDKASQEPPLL

T3: Cyno ASGR-1 (cynomolgus monkey, UniProt P07306 1-291 (human entry))
T3 construct: Expressed on HEK 293 cells or as membrane prep on beads; cDNA from XP_005582755; also called cynomologus monkey ASGR-1
T3 chain: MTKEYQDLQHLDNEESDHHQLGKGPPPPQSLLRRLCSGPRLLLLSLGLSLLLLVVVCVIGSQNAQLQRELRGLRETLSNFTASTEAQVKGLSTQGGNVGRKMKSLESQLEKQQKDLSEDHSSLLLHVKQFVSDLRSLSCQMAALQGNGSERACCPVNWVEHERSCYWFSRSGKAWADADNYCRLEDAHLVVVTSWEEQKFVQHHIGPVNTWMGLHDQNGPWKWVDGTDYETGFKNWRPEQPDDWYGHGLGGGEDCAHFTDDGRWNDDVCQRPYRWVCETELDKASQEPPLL


Assays:
[1] = target: T1, soluble human ASGR-1 carbohydrate …; test: Octet BLI, mAb on AR2G tips, 1:1 fit
From the text: To quantitate the binding affinity of specific antibodies for ASGR-1 (either purified from hybridoma supernatants or made recombinantly), association and dissociation rates can be measured using a ForteBio Octet instrument. […] Experimental kinetic results were globally fit to a 1:1 binding model in order to determine the association and dissociation rate constants as well as the equilibrium dissociation constant. Association and dissociation times were chosen to ensure that curvature was present during association curves and measured dissociation levels dropped at least 5% from starting levels. All Octet buffers contained 10 mM Tris (pH7.5), 150 mM NaCl, 1 mM CaCl₂), 0.10 mg/ml BSA and 0.13% Triton X-100. Octet assays were run at 27° C. Because this assay only measures binding to the ASGR-1 CBD, antibodies that recognize epitopes partially or entirely outside the CBD and/or recognize ASGR-1 in the context of a native ASGR complex, for example, as could occur on cell membranes, may not score as positive in this assay.

human ASGR-1 (wild type) = target: T2, human ASGR-1 (wild type); test: FACS, transfected CHO-S cells, mAb 5 ug/ml
Method in brief: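 Transiently transfected CHO-S cells expressing wild-type or mutant hASGR-1 incubated with antibody at 5 ug/ml, 1 h at 4 °C; bound antibody detected by Alexa Fluor 647 anti-Fc plus 7-AAD, by flow cytometry. Binding normalized to expression using an unaffected antibody (65C12), then to wild type; hits defined as >3× IQR above third quartile.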

Cyno ASGR-1 = target: T3, Cyno ASGR-1; test: FACS on transfected HEK 293 cells or membrane preps on beads; Y = signal at least 2x irrelevant IgG
Method in brief: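 Antibodies at normalized concentrations bound 1 h at 4° C to HEK 293 cells expressing each antigen, then Alexa Fluor 647 anti-Fc plus 7-AAD 15 min at 4° C, flow cytometry; empty-vector cells as negative. Alternatively, species ASGR-1 membrane preps on streptavidin beads, antibody 1 h RT, Alexa Fluor 488 anti-Fc; FACS buffer with 1 mM CaCl2 throughout.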

Row | Binder | Kd [1] | FACS Binding Geomean (human ASGR-1 (wild type)) | binding result (Cyno ASGR-1)
1 | 6G7 (antibody, V domains shown, mAb) VH: QVQLVESGGGVVQPGRSLRLSCAASGFTFSSYGMHWVRQTPGKGLEWVAIISYVGKNKYYADSVKGRFTISRDNSKNTLYLQMNSLRAEDTAVYYCARRGNSYGGYGMDVWGQGTTVTVSS VL: DIQMTQSPSSRSASVGDRVTITCQASQDISNYLNWCQQKPGKALKLLIYDASTLETGVPSRFSGSGSGTDFTFTISSVQPEDIATYYCQQYDNVPITFGQGTRLEIK | 2 nM | 38600 | 
2 | 7E11 (antibody, V domains shown, mAb) VH: QVQLVESGGGVVQPGRSLRLSCAASGFTFSSFGMHWVRQAPGKGLEWVAIIWHDGSNKYYADSVKGRFTISRDNSNNTLYLQMSSLRAEDTAVYYCARDLSMGGMDVWGQGTTVTVSS VL: DIQMTQSPSSLSASVGDRVTIACRASQNIISYLNWYQQKPGKAPKFLIYTASSLQSGVPSRFSGSGSGTDFTLTISSLQPEDFAIYYCQQTYSTPLTFGGGTKVEIK | 1.6 nM | 45500 | 
3 | 22G5 (antibody, V domains shown, mAb) VH: EVQLLESGGGLVQPGGSLRLSCAASGFTFSSYAMNWVRQAPGMGLEWVSVISRSGGYTYYADSVKGRFTISRDNSKNTLYLQMNSLRAEDTAVYYCASRLAVAGSEAFDIWGQGTLVTVSS VL: DIQMTQSPSSLSASVGDRVTITCRASQNISSYLNWYQQKQGKAPKLLIYAASSLQNGVPSRFSGRGSGTDFTLTISSLQPEDFATYYCQQSYRTPLFTFGPGTKVDFK | 1.4 nM | 45000 | 
4 | 4A2 (antibody, V domains shown, mAb) VH: QVQLVQSGTEVKKPGASVKVSCKASGYTFTNYDINWVRQATGQGLEWMGWMHPNSGNTGYAQKFQGRVTLTRNTSISTAYMELSSLRSEDTAVYYCASSSGWYYFDYWGQGTLVTVSS VL: DIVMTQSPDSLAVSLGERATINCKSSQSILHSSNNNNYLAWFQQKPGQPPKLLLYWASTRESGVPDRFSGSGSGTDFTLTISSLQPEDVAVYYCQQYYNTPVTFGPGTKVGIK | 0.06 nM | 41100 | 
5 | 26C4 (antibody, V domains shown, mAb) VH: QVQLVQSGAEVKKPGASVKVSCKASGYTFTNYDINWVRQASGQGLEWMGWMNPNSGNTGYAQRFQGRVTMTRNTSINTAYMELSSLRSEDTAVYYCASSSGWYYFDYWGQGTLVTVSS VL: not shown | 0.4 nM | 46000 | 
6 | 5E5 (antibody, V domains shown, mAb) VH: QVQLVESGGGVVQPGRSLRLSCAASGFTFSNYVMHWVRQAPGKGLEWVAVIWYDGSNKYYADSVKGRFTISRDNSKNTLYLQMNSLRAEDTAVYYCTREVYSSGWYDYGMDVWGQGTTVTVSS VL: DIQMTQSPSSLSASVGDRVTITCRASQGIRNDLGWYQQKPGKAPKRLIYAASSLQSGVPSRFSGSGSGTEFTLTISSLQPEDFATYYCLQHYSYPRTFGQGTKVEVK | 7.6 nM | 40700 | 
7 | 7G4 (antibody, V domains shown, mAb) VH: QVQLVESGGGVVQPGRSLRLSCAASGFTFNNYVMHWVRQAPGKGLEWVAVIWYDGSNKYYADSVKGRFTISRDNSKNTLYLQMTSLRAEDTAVYYCAREKYSSNWYDYGMDVWGQGTTVTVSS VL: DIQMTQSPSSLSASVGDRVTITCRASQGIRNDLGWYQQRPGKAPKRLIYAASSLQSGVPSRFSGSGSGTEFTLTISSLQPEDSATYYCLHQYSYPRTFGQGTKVEIK | 0.9 nM | 48500 | 

Second part, the binder after the results:

Row | Kd [1] | FACS Binding Geomean (human ASGR-1 (wild type)) | binding result (Cyno ASGR-1) | Binder
8 |  |  | binds | 4H6 (antibody, V domains shown, Tested as hybridoma supernatant at normalized concentration) VH: QVQLVQSGAEVKKPGASVKVSCKASGYTFTDYYLHWVRQAPGQGLEWMGWIHPNSGGTNYAQKFQGRVTMTRDTSISTAYMGLSSLRSDDTAVYYCARDGTSSFDYWGQGTLVTVSS VL: DIQMTQSPSSVSASVGDRVTITCRASQGISRWLAWYQQKPGKAPKLLIYGASSLQSGVPSRFSGSGSGTDFTLTISSLQPEDFAIYYCQQANSFPFTFGPGTKVDIK
9 |  |  | binds | 72G9 (antibody, V domains shown, Tested as hybridoma supernatant at normalized concentration) VH: EVQLVESGGGLVKPGGSLRLSCAASGFTFSSYSMNWVRQAPGKGLEWVSSISGSSSYIYYADSVKGRFTISRDNAKNSLYLQMNSLRAEDTAVYFCARGGSRGFDPWGQGTLVTVSS VL: DIQMTQSPSSLSASVGDRVTITCRASQSITSYLNWYQQKPGKAPKLLIYTASSLQSGVPSRFSGSGSGTDFTLTISSLQPEDFATYYCQQSHSFPFTFGPGTKVDIK
10 | 0.5 nM | 42600 |  | 56E5 (antibody, V domains shown, mAb) VH: QVQLVQSGAEVKKPGASVKVSCQASGYTFTGYHMHWVRQAPGQGLEWMGWINPNNNATNYAQKFQGRVTMTRDTSISTAYMELRRLRSDDTAVYHCARDGTSSFDYWGQGTLVTVSS VL: DIQMTQSPSSVSASVGDRVTITCRASQGIRKWLAWYQQKPGKAPKLLIYAASSLQSGVPSRFSGSGSGTDFTLTISSLQPEDFATYYCQQANSFPFTFGPGTKVDIK
11 |  |  | binds | 56E5 (antibody, V domains shown, Tested as hybridoma supernatant at normalized concentration) VH: QVQLVQSGAEVKKPGASVKVSCQASGYTFTGYHMHWVRQAPGQGLEWMGWINPNNNATNYAQKFQGRVTMTRDTSISTAYMELRRLRSDDTAVYHCARDGTSSFDYWGQGTLVTVSS VL: DIQMTQSPSSVSASVGDRVTITCRASQGIRKWLAWYQQKPGKAPKLLIYAASSLQSGVPSRFSGSGSGTDFTLTISSLQPEDFATYYCQQANSFPFTFGPGTKVDIK
12 |  |  | binds | 4B1 (antibody, V domains shown, Tested as hybridoma supernatant at normalized concentration) VH: QVQLQESGPGLVKPSETLSLTCSVSGDSISSYSWSWIRQPAGKGLEWIGRIYTSGSTNYIPSLKSRITMSVDTSKKQFSLKLSSVTAADTAVYYCARDLKSSGCLFFDYWGQGTLVTVSS VL: DIQMTQSPSSLSASVGDRVTITCRASHTIRTYLNWYQQKPGKAPKLLIYAASSLQSGVPSRINGSGSGTDFTLTITNLQPEDFATYYCQQSYNISFTFGPGTKVDIK
13 | 0.3 nM | 52500 |  | 48B12 (antibody, V domains shown, mAb) VH: EVQLLESGGGLVQPGGSLRLSCAASGFTFSSYAMNWVRQAPGKGLEWVSAISGRGGNTFYADSVKGRFTISRDNSKNTLYLQMNSLRAEDTAVYYCAKRETYNWNYEGFDYWGQGTLVTVSS VL: SYELTQPPSVSVSPGQTARITCSGDALPKKYAYWYQQKSGQAPVLVIYEDSKRPSGIPERFSGSSSGTMATLTISGAQVEDEADYYCNSTDSSGNHVVFGGGTKLTVL
14 | 0.3 nM | 42700 |  | 184E7 (antibody, V domains shown, mAb) VH: QVQLVQSGAEVKTPGASVKVSCRASGYTFTSYNMHWVRQVPGQGLEWMGWINPNNGGSNYTQKFQGRVTMTRDTSISTAYMELSRLRSDDTAVYYCARKFGDWGQGTLVTVSS VL: DIQMTQSPSSRSASIGERVTITCRASQGISNYLAWIQQKPGTAPKSLIYAASSLQSGVSSRFSGSGFGTDFTITISSVQREDFATYYCQQYNGYPFTFGHGTKVDIK
15 | 0.03 nM | 55600 |  | 25A4 (antibody, V domains shown, mAb) VH: QVLLVQSGAEVKRPGASVKVSCKASGYTFTNYDINWVRQATGQGLEWMGWMYPNSGNTGYAQKFQGRVTMTRNTSISTAYMELSSLRSEDTAVYYCASSSGWYYFDYWGQGTLVTVSS VL: DIVMTQFPDSLAVSLGERATIKCKSSQSVLYSSHNNNYLAWYQQKPGQPPKLLLYWASTRESGVPDRFSGSGSGTEFTLTISSLEAEDVAVYYCQQYYSTPPTFGQGTKVEIK
16 | 1 nM | 40900 |  | 29H8 (antibody, V domains shown, mAb) VH: QVQLVQSGAEVQKPGASVKVSCKASGYTFTNYDINWVRQATGQGLEWMGWMNPNSGNTGYAQRFQGRVTMTRNTSISAAYMELSSLRSEDTAVYYCASSSGWYYFDYWGQGTLVTVSS VL: not shown
